The target of the assay is T1, A/Brevig Mission/1/1918 H1N1 NA, soluble tetramer with His tag attached (influenza A virus A/Brevig …).
T1 chain: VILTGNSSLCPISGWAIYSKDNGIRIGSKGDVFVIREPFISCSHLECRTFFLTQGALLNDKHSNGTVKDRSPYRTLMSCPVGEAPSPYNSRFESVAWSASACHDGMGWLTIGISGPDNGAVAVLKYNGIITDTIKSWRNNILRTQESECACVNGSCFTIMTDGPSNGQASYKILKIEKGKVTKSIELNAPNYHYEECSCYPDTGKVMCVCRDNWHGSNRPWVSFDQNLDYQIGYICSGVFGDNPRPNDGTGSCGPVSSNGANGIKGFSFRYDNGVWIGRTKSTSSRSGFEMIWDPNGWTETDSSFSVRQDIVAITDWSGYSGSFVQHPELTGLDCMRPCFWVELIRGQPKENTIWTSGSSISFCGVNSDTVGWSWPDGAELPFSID
Nature of the assay: SPR.

This passage reports Kd results from PMC7542365 (mBio, 2020).

B1: Z2B3-D102R Fab (Fab, V domains shown)
VH: EVQLVQSGAEVKKPGSSVKVSCKASGGPFSSYGFSWVRQAPGQGLEWMGGIIPVYGTTNYAQKFQGRVTITADESTSTAYMELSSLKSEDTAVYYCARDLQRTPMVDRIIGSYYYYNGLDVWGQGTTVTVSS
VL: QSVLTQPASVSGSPGQSITISCTGASSDVGDYNYVSWYQQHPGKAPKLMIYDVSNRPSGVSNRFSGSKSGDTASLTISGLQAEDEADYYCSSYTRSSSVVFGGGTKLTVL
B1 yielded a Kd of 1670 nM.
